Laboratory results as given in US20030232013A1, “Therapeutic and diagnostic targeting of cancers cells with tumor homing peptides” (priority 2002, published 2003).
Where two headings read alike, the source gives them in different places. Bridge positions count the residues as written; N and C are the ends. Peptide text beside a SMILES is read from it. * marks the point of attachment. DOTA = O=C(O)CN1CCN(CC(=O)O)CCN(CC(=O)*)CCN(CC(=O)O)CC1; Ahx = NCCCCCC(=O)O

Assay: In vivo biodistribution in MB-231 tumor bearing SCID mice
Conditions: female, ICR SCID, mouse, iv, total radioactivity; for tissue uptake at 1 h / dose excreted at 1 h: 1 hour post-injection; for tissue uptake at 24 h / dose excreted at 24 h: 24 hours post-injection
Source text: In vivo iodistribution studies. Four- to 5-week old female ICR SCID ([…]) outbred mice were obtained from Taconic (Germantown, N.Y.). The mice were housed five animals per cage in sterile micro isolator cages in a temperature- and humidity-controlled room with a 12-hour light/12-hour dark schedule. The animals were fed autoclaved rodent chow (Ralston Purina Company, St. Louis, Mo.) and water ad libitum. Animals were housed one week prior to inoculation of tumor cells and anesthetized for injections with isoflurane (Baxter Healthcare Corp., Deerfield, Ill.) at a rate of 2.5% with 0.4L oxygen through a non-rebreathing anesthesia vaporizer.
Human breast cancer MB231 and T47D cells were injected on the bilateral subcutaneous (s.c.) flank with ˜5×10^6 cells in a suspension of 100 μl normal sterile saline per injection site. MB231 and T47D cells were allowed to grow in vivo two to three weeks post inoculation developing tumors ranging in sizes from 0.02-1.30 grams. The biodistribution and uptake of ^111In-DOTA-Phe^19-STh or ^111In-DOTA-6-Ahx-Phe^19-STh in tumor bearing SCID mice was studied. The mice (average weight, 25 g) were injected with aliquots (50-100 μl) of the radiolabeled peptide solution (55-75 kBq) in each animal via the tail vein. Tissues, organs and tumors were excised from the animals sacrificed at 1 hr, 4 hrs and 24 hrs p.i. For blocking studies, an access of non-radioactive 6-Ahx-Phe^19-STh (100 μg) was also injected along with the radiolabeled peptide solution. The radioactivity was measured in a NaI counter and the percent-injected dose per organ and the percent-injected dose per gram tissue were calculated (Tables 5 and 6). Animal studies were conducted in accordance with the highest standards of care as outlined in the NIH guide for Care and Use of Laboratory Animals and the Policy and Procedures for Animal Research at the Harry S. Truman Memorial VA Hospital and according to approved protocols.

CC(C)C[C@@H]1NC(=O)[C@H](CCC(=O)O)NC(=O)[C@@H]2CSSC[C@@H]3NC(=O)[C@H](C)NC(=O)[C@@H]4CCCN4C(=O)[C@H](CC(N)=O)NC(=O)[C@H](CSSC[C@H](NC(=O)[C@H](Cc4ccc(O)cc4)NC(=O)[C@H](CC(N)=O)NC(=O)[C@H](CO)NC(=O)[C@H](CO)NC(=O)[C@H](CC(N)=O)NC(=O)CCCCCNC(=O)CN4CCN(CC(=O)O)CCN(CC(=O)O)CCN(CC(=O)O)CC4)C(=O)N2)NC(=O)[C@H](CSSC[C@@H](C(=O)N[C@@H](Cc2ccccc2)C(=O)O)NC(=O)CNC(=O)[C@H]([C@@H](C)O)NC3=O)NC1=O [^111In-DOTA-6-Ahx-Phe^19-STh, metal not drawn] ({DOTA-Ahx}-NSSNYCCELCCNPACTGCF-OH; disulfide 6-11, 7-15, 10-18)
tissue uptake at 1 h (MB-231 tumor, MB-231 tumor, Blocking (100 μg non-radioactive 6-Ahx-Phe^19-STh co-injected), n = 4, read-out: biodistribution, Tumor): 0.84 ± 0.3 %ID/g
tissue uptake at 1 h (MB-231 tumor, MB-231 tumor, n = 5, read-out: biodistribution, Tumor): 0.7 ± 0.16 %ID/g
tissue uptake at 4 h (MB-231 tumor, MB-231 tumor, 4 hours post-injection, n = 5, read-out: biodistribution, Tumor): 0.24 ± 0.12 %ID/g
tissue uptake at 24 h (MB-231 tumor, MB-231 tumor, n = 4, read-out: biodistribution, Tumor): 0.13 ± 0.16 %ID/g
tissue uptake at 1 h (blood, Blocking (100 μg non-radioactive 6-Ahx-Phe^19-STh co-injected), n = 4, read-out: biodistribution, Blood): 0.85 ± 0.31 %ID/g
tissue uptake at 1 h (blood, n = 5, read-out: biodistribution, Blood): 0.57 ± 0.13 %ID/g
tissue uptake at 4 h (blood, 4 hours post-injection, n = 5, read-out: biodistribution, Blood): 0.04 ± 0.05 %ID/g
tissue uptake at 24 h (blood, n = 4, read-out: biodistribution, Blood): 0.01 ± 0.02 %ID/g
dose excreted at 24 h (faeces, n = 4, read-out: biodistribution, Feces (Avg % ID)): 14.2 ± 17.3%
tissue uptake at 1 h (heart, Blocking (100 μg non-radioactive 6-Ahx-Phe^19-STh co-injected), n = 4, read-out: biodistribution, Heart): 0.24 ± 0.11 %ID/g
tissue uptake at 1 h (heart, n = 5, read-out: biodistribution, Heart): 0.14 ± 0.03 %ID/g
tissue uptake at 4 h (heart, 4 hours post-injection, n = 5, read-out: biodistribution, Heart): 0.06 ± 0.06 %ID/g
tissue uptake at 24 h (heart, n = 4, read-out: biodistribution, Heart): 0.03 ± 0.03 %ID/g
tissue uptake at 1 h (kidney, Blocking (100 μg non-radioactive 6-Ahx-Phe^19-STh co-injected), n = 4, read-out: biodistribution, Kidney): 12.8 ± 2.01 %ID/g
tissue uptake at 1 h (kidney, n = 5, read-out: biodistribution, Kidney): 4.98 ± 0.67 %ID/g
tissue uptake at 4 h (kidney, 4 hours post-injection, n = 5, read-out: biodistribution, Kidney): 4.96 ± 0.5 %ID/g
tissue uptake at 24 h (kidney, n = 4, read-out: biodistribution, Kidney): 2.94 ± 0.42 %ID/g
tissue uptake at 1 h (large intestine, Blocking (100 μg non-radioactive 6-Ahx-Phe^19-STh co-injected), n = 4, read-out: biodistribution, Large Intestine): 0.17 ± 0.03 %ID/g
tissue uptake at 1 h (large intestine, n = 5, read-out: biodistribution, Large Intestine): 0.37 ± 0.05 %ID/g
tissue uptake at 4 h (large intestine, 4 hours post-injection, n = 5, read-out: biodistribution, Large Intestine): 0.66 ± 0.52 %ID/g
tissue uptake at 24 h (large intestine, n = 4, read-out: biodistribution, Large Intestine): 1.5 ± 2.59 %ID/g
tissue uptake at 1 h (liver, Blocking (100 μg non-radioactive 6-Ahx-Phe^19-STh co-injected), n = 4, read-out: biodistribution, Liver): 0.33 ± 0.06 %ID/g
tissue uptake at 1 h (liver, n = 5, read-out: biodistribution, Liver): 0.2 ± 0.03 %ID/g
tissue uptake at 4 h (liver, 4 hours post-injection, n = 5, read-out: biodistribution, Liver): 0.09 ± 0.02 %ID/g
tissue uptake at 24 h (liver, n = 4, read-out: biodistribution, Liver): 0.05 ± 0.02 %ID/g
tissue uptake at 1 h (lung, Blocking (100 μg non-radioactive 6-Ahx-Phe^19-STh co-injected), n = 4, read-out: biodistribution, Lung): 0.49 ± 0.12 %ID/g
tissue uptake at 1 h (lung, n = 5, read-out: biodistribution, Lung): 0.31 ± 0.04 %ID/g
tissue uptake at 4 h (lung, 4 hours post-injection, n = 5, read-out: biodistribution, Lung): 0.08 ± 0.05 %ID/g
tissue uptake at 24 h (lung, n = 4, read-out: biodistribution, Lung): 0.01 ± 0.02 %ID/g
tissue uptake at 1 h (muscle, Blocking (100 μg non-radioactive 6-Ahx-Phe^19-STh co-injected), n = 4, read-out: biodistribution, Muscle): 0.1 ± 0.08 %ID/g
tissue uptake at 1 h (muscle, n = 5, read-out: biodistribution, Muscle): 0.1 ± 0.08 %ID/g
tissue uptake at 4 h (muscle, 4 hours post-injection, n = 5, read-out: biodistribution, Muscle): 0.04 ± 0.05 %ID/g
tissue uptake at 24 h (muscle, n = 4, read-out: biodistribution, Muscle): 0.02 ± 0.04 %ID/g
tissue uptake at 1 h (pancreas, Blocking (100 μg non-radioactive 6-Ahx-Phe^19-STh co-injected), n = 4, read-out: biodistribution, Pancreas): 0.21 ± 0.04 %ID/g
tissue uptake at 1 h (pancreas, n = 5, read-out: biodistribution, Pancreas): 0.13 ± 0.03 %ID/g
tissue uptake at 4 h (pancreas, 4 hours post-injection, n = 5, read-out: biodistribution, Pancreas): 0.05 ± 0.02 %ID/g
tissue uptake at 24 h (pancreas, n = 4, read-out: biodistribution, Pancreas): 0.03 ± 0.02 %ID/g
tissue uptake at 1 h (small intestine, Blocking (100 μg non-radioactive 6-Ahx-Phe^19-STh co-injected), n = 4, read-out: biodistribution, Small Intestine): 0.85 ± 1.19 %ID/g
tissue uptake at 1 h (small intestine, n = 5, read-out: biodistribution, Small Intestine): 0.99 ± 0.18 %ID/g
tissue uptake at 4 h (small intestine, 4 hours post-injection, n = 5, read-out: biodistribution, Small Intestine): 0.28 ± 0.07 %ID/g
tissue uptake at 24 h (small intestine, n = 4, read-out: biodistribution, Small Intestine): 0.21 ± 0.13 %ID/g
tissue uptake at 1 h (spleen, Blocking (100 μg non-radioactive 6-Ahx-Phe^19-STh co-injected), n = 4, read-out: biodistribution, Spleen): 0.12 ± 0.14 %ID/g
tissue uptake at 1 h (spleen, n = 5, read-out: biodistribution, Spleen): 0.15 ± 0.1 %ID/g
tissue uptake at 4 h (spleen, 4 hours post-injection, n = 5, read-out: biodistribution, Spleen): 0.05 ± 0.05 %ID/g
tissue uptake at 24 h (spleen, n = 4, read-out: biodistribution, Spleen): 0.02 ± 0.04 %ID/g
tissue uptake at 1 h (stomach, Blocking (100 μg non-radioactive 6-Ahx-Phe^19-STh co-injected), n = 4, read-out: biodistribution, Stomach): 2.18 ± 3.69 %ID/g
tissue uptake at 1 h (stomach, n = 5, read-out: biodistribution, Stomach): 0.31 ± 0.33 %ID/g
tissue uptake at 4 h (stomach, 4 hours post-injection, n = 5, read-out: biodistribution, Stomach): 0.03 ± 0.01 %ID/g
tissue uptake at 24 h (stomach, n = 4, read-out: biodistribution, Stomach): 0.09 ± 0.09 %ID/g
dose excreted at 1 h (urine, Blocking (100 μg non-radioactive 6-Ahx-Phe^19-STh co-injected), n = 4, read-out: biodistribution, Urine (Avg % ID)): 87.4 ± 4.5%
dose excreted at 1 h (urine, n = 5, read-out: biodistribution, Urine (Avg % ID)): 89.4 ± 2.9%
dose excreted at 4 h (urine, 4 hours post-injection, n = 5, read-out: biodistribution, Urine (Avg % ID)): 95.8 ± 1.4%
dose excreted at 24 h (urine, n = 4, read-out: biodistribution, Urine (Avg % ID)): 82.5 ± 20.3%
